Source: patent US20110145941A1 (LAY LINE GENOMICS S P A, published 2011)
Numbering of substitutions follows the chain as printed.

Legend:
[1] = target: T1, human TrkA receptor on the cell surface (human, UniProt P04629 33-796); test: flow cytometry on TF-1 cells, control immunoglobulin
[2] = target: T1, human TrkA receptor on the cell surface; test: cell-based or functional assay
[3] = target: T2, TrkA-IgG (UniProt P04629 33-423, limits assumed); test: SPR (BIACORE 2000), TrkA-IgG immobilised on CM-5 chip, 'separated 1:1' fit
T2 construct: also called specific antigen TrkA-IgG; not shown: IgG part of the fusion
T2 sequence (P04629 33-423 limits assumed): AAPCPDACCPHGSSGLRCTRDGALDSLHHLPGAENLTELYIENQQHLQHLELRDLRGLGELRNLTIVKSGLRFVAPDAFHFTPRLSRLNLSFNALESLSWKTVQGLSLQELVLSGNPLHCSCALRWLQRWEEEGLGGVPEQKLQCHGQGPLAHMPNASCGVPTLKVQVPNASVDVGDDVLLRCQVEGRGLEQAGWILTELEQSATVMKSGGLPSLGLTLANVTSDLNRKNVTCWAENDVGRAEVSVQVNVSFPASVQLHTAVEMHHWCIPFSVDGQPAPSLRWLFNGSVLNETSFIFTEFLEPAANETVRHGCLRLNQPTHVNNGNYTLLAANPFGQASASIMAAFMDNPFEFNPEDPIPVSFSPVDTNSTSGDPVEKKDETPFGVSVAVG
Experimental: Surface plasmon resonance analysis was used to measure the association and dissociation rate constants for binding kinetics of the different antibodies (murine, chimeric, 5 humanised variants) towards TrkA-IgG using BIACORE 2000 (Biacore AB, Uppsala, Sweden). TrkA-IgG was immobilised on a CM-5 sensor chip according to manufacturer's conditions, in a way to achieve an immobilization density of 1100 RU. Each antibody sample was analyzed in antibody concentration ranges of 20-0.63 μg/ml. Calculations from the sensograms were performed by using the BIA evaluation version 3 (1999) software.
Analysis of the individual sets of sensograms was performed with the BIA evaluation version 3 (1999) software. Among the different models tested to fit the kinetics data, the best fitting was obtained with the “separated 1:1” algorithm. In this model, only a defined range of the early association and dissociation curves was used for the calculation.

[4] = target: T1, human TrkA receptor on the cell surface; test: flow cytometry on TF-1 cells, 4 µg/ml; set-up: Geo Mean Fluorescence: reference not given here
[5] = target: T2, TrkA-IgG; test: SPR (BIACORE 2000), TrkA-IgG immobilised on CM-5 chip, 'separated 1:1' fit; separate experiment

T1 sequence (P04629 33-796): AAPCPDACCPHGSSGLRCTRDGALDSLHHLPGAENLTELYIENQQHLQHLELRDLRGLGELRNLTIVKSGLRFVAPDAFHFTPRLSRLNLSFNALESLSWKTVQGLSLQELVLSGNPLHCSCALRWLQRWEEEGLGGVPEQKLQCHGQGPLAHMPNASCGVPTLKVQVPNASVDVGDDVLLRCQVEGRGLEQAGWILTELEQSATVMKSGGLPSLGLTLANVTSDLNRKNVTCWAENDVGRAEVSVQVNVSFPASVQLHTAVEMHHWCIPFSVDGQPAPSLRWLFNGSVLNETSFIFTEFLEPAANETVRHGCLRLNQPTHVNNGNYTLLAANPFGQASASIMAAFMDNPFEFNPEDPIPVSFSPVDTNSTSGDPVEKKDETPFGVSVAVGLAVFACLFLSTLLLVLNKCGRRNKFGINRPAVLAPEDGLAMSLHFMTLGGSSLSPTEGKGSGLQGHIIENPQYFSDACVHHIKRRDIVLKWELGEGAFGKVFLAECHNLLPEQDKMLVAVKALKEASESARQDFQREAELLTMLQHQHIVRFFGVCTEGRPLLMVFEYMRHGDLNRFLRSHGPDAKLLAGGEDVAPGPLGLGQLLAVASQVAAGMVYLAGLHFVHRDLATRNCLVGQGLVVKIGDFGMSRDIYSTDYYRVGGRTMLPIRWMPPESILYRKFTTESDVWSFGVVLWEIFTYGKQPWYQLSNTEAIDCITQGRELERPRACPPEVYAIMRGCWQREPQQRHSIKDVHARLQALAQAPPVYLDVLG

Molecule: Human IgG1 standard control (antibody)
- Fold Increase [1]: 1 fold
- Geo Mean Fluorescence [1]: 3.5

B1: BXhVH5VL3 (antibody, human IgG1, V domains shown)
VH: EVKLLESGGGLVQPGGSLRLSCAASGFTFSTYTMSWVRQTPGKRLEWVAYISKGGGSTYYPDTVKGRFTISRDNSKNTLYLQMNSLRAEDTAVYYCARGAMYGNDFFYPMDYWGQGTTVTVSS
VL: QIVLTQSPATLSLSPGERATLSCSASSSVSYMHWYQQKPGQSPRLLIYTTSNLASGIPSRFSGSGSGTFYTLTISSLEPEDFAVYYCHQWSSYPWTFGGGTKLEIK
notes: Human IgG1 constant regions (IgG1 expression vectors); also called hVH5/hVL3
- Proliferation assay on TF1 cells IC50 (µg/ml), EXP-1 [2]: 1.4 µg/mL
- Proliferation assay on TF1 cells IC50 (µg/ml), EXP-2 [2]: 1.21 µg/mL
- Kd [3]: 0.662 nM
- koff [3]: 0.000638 s⁻¹
- kon [3]: 1e+06 M⁻¹ s⁻¹
- Fold Increase [4]: 3.9 fold
- Geo Mean Fluorescence [4]: 13.7

B2: HuMNACWO (antibody, V domains shown)
VH: B1 VH with K3Q, V37A, T40A, R44G, T91S, Y102F, Y108F, Y112R, T118L
VL: DIVLTQSPSSLSASVGDRVTITCSASSSVSYMHWYQQKPGQAPKLLIYTTSNLASGVPSRFSGSGSGTDYTLTISSLQPEDVATYYCHQWSSYPWTFGGGTKVEIK
notes: Prior art humanised antibody; also called humanised antibody MNAC13 disclosed in WO 05/061540; HuVHWO/HuVLWO
- Kd [5]: 41.8 nM
- koff [5]: 0.0309 s⁻¹
- kon [5]: 739000 M⁻¹ s⁻¹
